Data reported in patent US20220024981A1 (Novartis, published 2022).
Bridge positions count the residues as written; N and C are the ends. Square brackets hold non-standard residues; d marks the D form. Bip = N[C@@H](Cc1ccc(-c2ccccc2)cc1)C(=O)O; NMeA = CN[C@@H](C)C(=O)O

Target: T1, Human PCSK9 Alexa Fluor 647 (human, UniProt Q8NBP7 31-692, limits assumed, Alexa Fluor 647 label (site not stated))
T1 construct: Labelled tracer of the TR-FRET assay, 16 nM stock; also called proprotein convertase subtilisin/kexin type 9
T1 sequence (Q8NBP7 31-692 limits assumed): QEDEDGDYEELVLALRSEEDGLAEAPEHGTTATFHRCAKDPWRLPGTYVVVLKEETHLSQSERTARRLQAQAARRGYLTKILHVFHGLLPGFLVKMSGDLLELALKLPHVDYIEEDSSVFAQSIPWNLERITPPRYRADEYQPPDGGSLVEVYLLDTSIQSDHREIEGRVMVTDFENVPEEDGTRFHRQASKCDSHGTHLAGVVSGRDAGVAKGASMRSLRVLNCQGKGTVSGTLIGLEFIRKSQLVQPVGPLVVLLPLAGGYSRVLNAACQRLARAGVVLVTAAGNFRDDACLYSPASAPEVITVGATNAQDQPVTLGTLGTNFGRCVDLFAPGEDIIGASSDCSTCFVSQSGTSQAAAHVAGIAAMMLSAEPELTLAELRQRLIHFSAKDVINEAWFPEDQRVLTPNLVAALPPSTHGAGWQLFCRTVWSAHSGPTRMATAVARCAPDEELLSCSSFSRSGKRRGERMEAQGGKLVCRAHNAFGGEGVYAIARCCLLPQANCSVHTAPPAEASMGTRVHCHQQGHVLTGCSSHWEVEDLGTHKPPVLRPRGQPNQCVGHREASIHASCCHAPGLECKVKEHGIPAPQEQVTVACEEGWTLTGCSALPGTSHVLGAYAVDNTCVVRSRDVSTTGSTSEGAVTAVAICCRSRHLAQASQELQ
Assay: TR-FRET competition: PCSK9-Alexa Fluor 647 vs LDLR ECD-Eu kryptate
Method: A Proxi plate-low volume assay plate was used for the assay. […] Following a 30 minute incubation, 5 uL of 4 nM Human LDLR extracellular domain-Europium Kryptate was added and the mixture was incubated for an additional 2 hours.
The TR-FRET signal was measured on an EnVision or PheraStar instrument with a 60 μs delay, 330 nm excitation and 665 nm emission (FRET), and 330 nm excitation and 615 nm (Europium). The FRET ratio (FRET/Europium) was used for calculations.

B1: Ac*-F-V-P-T-T-B-(N-Me)A-B-(N-Me)A-A-A-P-C*-NHEt (peptide)
peptide: {CH2CO}-FVPTT[Bip][NMeA][Bip][NMeA]AAPC-NHEt
modifications: thioether N-13
SMILES: CCNC(=O)[C@@H]1CSCC(=O)N[C@@H](Cc2ccccc2)C(=O)N[C@@H](C(C)C)C(=O)N2CCC[C@H]2C(=O)N[C@@H]([C@@H](C)O)C(=O)N[C@@H]([C@@H](C)O)C(=O)N[C@@H](Cc2ccc(-c3ccccc3)cc2)C(=O)N(C)[C@@H](C)C(=O)N[C@@H](Cc2ccc(-c3ccccc3)cc2)C(=O)N(C)[C@@H](C)C(=O)N[C@@H](C)C(=O)N[C@@H](C)C(=O)N2CCC[C@H]2C(=O)N1
notes: also called 3-4; Ex. No. 3-4
IC50: 1.4 nM
Maximum % inhibition: 49%
